In the supplement of paper PMC9233669:
This sample holds only a part of the variants without activity.

What was measured:
biotinyl-Met-oxazolone = experiment: self-aminoacylation, catalytic enhancement (BMO) (fold over background); higher = more active; k-Seq, kA / k0A0; sequences stand for … in GGGAAUGGAUCCACAUCUACGAAUUC…UUCACUGCAGACUUGACGAAGCUG
Outline: (§1)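 Mutagenized RNA pools with a 21-nt variable region (0.43 μM) were reacted with each biotinyl-aminoacyl-oxazolone at 2–1250 μM for 90 minutes at room temperature, in 50 μL HEPES/NaCl/KCl/MgCl2/CaCl2 buffer containing 5% acetonitrile at pH 6.9–7.0. RNA captured on streptavidin was quantified by triplicate qPCR and by Illumina sequencing. The fraction reacted for each sequence was fit to a pseudo-first-order model with bootstrapping, and catalytic enhancement is the median kA divided by the uncatalyzed rate, taken as the low-activity peak of a bimodal Gaussian fit.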

biotinyl-Trp-oxazolone = experiment: self-aminoacylation, catalytic enhancement (BWO) (fold over background); higher = more active; k-Seq, kA / k0A0; sequences stand for … in GGGAAUGGAUCCACAUCUACGAAUUC…UUCACUGCAGACUUGACGAAGCUG
Outline: as §1

biotinyl-Phe-oxazolone = experiment: self-aminoacylation, catalytic enhancement (BFO) (fold over background); higher = more active; k-Seq, kA / k0A0; sequences stand for … in GGGAAUGGAUCCACAUCUACGAAUUC…UUCACUGCAGACUUGACGAAGCUG
Outline: as §1

biotinyl-Leu-oxazolone = experiment: self-aminoacylation, catalytic enhancement (BLO) (fold over background); higher = more active; k-Seq, kA / k0A0; sequences stand for … in GGGAAUGGAUCCACAUCUACGAAUUC…UUCACUGCAGACUUGACGAAGCUG
Outline: as §1

biotinyl-Val-oxazolone = experiment: self-aminoacylation, catalytic enhancement (BVO) (fold over background); higher = more active; k-Seq, kA / k0A0; sequences stand for … in GGGAAUGGAUCCACAUCUACGAAUUC…UUCACUGCAGACUUGACGAAGCUG
Outline: as §1

biotinyl-Ile-oxazolone = experiment: self-aminoacylation, catalytic enhancement (BIO) (fold over background); higher = more active; k-Seq, kA / k0A0; sequences stand for … in GGGAAUGGAUCCACAUCUACGAAUUC…UUCACUGCAGACUUGACGAAGCUG
Outline: as §1

Sequence	self-aminoacylation (biotinyl-Met-oxazolone)	self-aminoacylation (biotinyl-Trp-oxazolone)	self-aminoacylation (biotinyl-Phe-oxazolone)	self-aminoacylation (biotinyl-Leu-oxazolone)	self-aminoacylation (biotinyl-Val-oxazolone)	self-aminoacylation (biotinyl-Ile-oxazolone)
ACUACCCUGGUCAUCGAGUGU [Fam2.1 aminoacylation ribozyme variant]	58.6	53.1	409	59.7	20.3	16.3
ACUACCCUGGUCAUCGCGUGA [Fam2.1 aminoacylation ribozyme variant]	17.9	19.3	163	21.5	12.1	8.88
ACUACCCUGGUCAUCGUGUGA [Fam2.1 aminoacylation ribozyme variant]	4.14	3.83	24.4	3.39	2.33	1.58
ACUACCCUGGUCAUCUAGUGA [Fam2.1 aminoacylation ribozyme variant]	7.5	7.62	63.1	7.72	3.97	3.86
ACUACCCUGGUCAUUGAGUGA [Fam2.1 aminoacylation ribozyme variant]	7.75	8.89	34	8.8	4.05	4.12
ACUACCCUGGUCCUCGAGUGA [Fam2.1 aminoacylation ribozyme variant]	4.59	4.3	17.6	3.84	2.25	2.6
ACUACCCUGGUCGUCGAGUGA [Fam2.1 aminoacylation ribozyme variant]	1.49	0.701	6.66	1.95	1.19	1.17
ACUACCCUGGUGAUCGAGUGA [Fam2.1 aminoacylation ribozyme variant]	6.46	9.48	28	7.61	3.6	4.03
ACUACCUUGGUCAUCGAGUGA [Fam2.1 aminoacylation ribozyme variant]	3.77	5.82	10.5	4.02	3.23	2.96
ACUCACCGAGGUCAUCGGGUG [Fam2.2 aminoacylation ribozyme variant]	6.05	8.16	41.6	7.63	5.07	4.34
ACUCACCUAGAUCAUCGGGUG [Fam2.2 aminoacylation ribozyme variant]	2.99	5.49	26.9	3.38	3.13	2.9
ACUCACCUAGGACAUCGGGUG [Fam2.2 aminoacylation ribozyme variant]	3.82	4.88	20.1	4.64	4.87	3.36
ACUCACCUAGGUCAACGGGUG [Fam2.2 aminoacylation ribozyme variant]	2.67	3.14	8.54	2.29	2.22	1.94
ACUCACCUAGGUCAGCGGGUG [Fam2.2 aminoacylation ribozyme variant]	4.16	4.54	31.4	4.43	3.86	3.56
ACUCACCUAGGUCAUAGGGUG [Fam2.2 aminoacylation ribozyme variant]	1.57	1.58	1.46	1.39	1.36	1.31
ACUCACCUAGGUCAUCGCGUG [Fam2.2 aminoacylation ribozyme variant]	7.39	9.66	70	10.6	6.93	5.51
ACUCACCUAGGUCAUCGGGUU [Fam2.2 aminoacylation ribozyme variant]	8.19	6.68	31.3	11.3	5.06	5.92
ACUCACCUAGGUCUUCGGGUG [Fam2.2 aminoacylation ribozyme variant]	4.6	6.33	29.7	6.01	4.96	4.2
ACUCACCUAGUUCAUCGGGUG [Fam2.2 aminoacylation ribozyme variant]	3.46	3.85	19.7	3.86	3.36	2.87
ACUCGCCUAGGUCAUCGGGUG [Fam2.2 aminoacylation ribozyme variant]	9.99	10.9	62.9	11	6.73	6.84
ACUUCCCUGGUCAUCGAGUGA [Fam2.1 aminoacylation ribozyme variant]	9.66	12.1	41.8	9.49	5.69	4.96
AGACACCUAGGUCAUCGGGUG [Fam2.2 aminoacylation ribozyme variant]	3.07	4.31	20.6	3.29	2.32	3.01
AGAUUUGCUAAUAGUCGCAAG [Fam3.1 aminoacylation ribozyme variant]	1.58	1.88	2.47	2.39	1.8	1.91
AGCCACCUAGGUCAUCGGGUG [Fam2.2 aminoacylation ribozyme variant]	7.16	10.3	81.6	8.17	6.3	6.24
AGGCUUGCUAAUAGUCGCAAG [Fam3.1 aminoacylation ribozyme variant]	2.14	2.08	3.69	2.31	1.96	2.17
AGGUUUGAUAAUAGUCGCAAG [Fam3.1 aminoacylation ribozyme variant]	1.57	1.8	3.51	1.67	1.54	1.55

Sequence	self-aminoacylation (biotinyl-Met-oxazolone)	self-aminoacylation (biotinyl-Trp-oxazolone)	self-aminoacylation (biotinyl-Phe-oxazolone)	self-aminoacylation (biotinyl-Leu-oxazolone)	self-aminoacylation (biotinyl-Val-oxazolone)	self-aminoacylation (biotinyl-Ile-oxazolone)
AGGUUUGCUAAUAAUCGCAAG [Fam3.1 aminoacylation ribozyme variant]	0.753	0.725	1.91	0.822	0.949	0.899
AGGUUUGCUAAUAGACGCAAG [Fam3.1 aminoacylation ribozyme variant]	0.529	0.609	0.835	0.594	0.752	0.608
AGGUUUGCUAAUAGGCGCAAG [Fam3.1 aminoacylation ribozyme variant]	0.736	1.18	1.16	0.626	0.734	0.85
AGGUUUGGUAAUAGUCGCAAG [Fam3.1 aminoacylation ribozyme variant]	1.72	2.22	3.19	1.77	1.41	1.82
AGUACCAUGGUCAUCGAGUGA [Fam2.1 aminoacylation ribozyme variant]	6.66	8.32	29.9	7.11	4.22	4.22
AGUACCCAGGUCAUCGAGUGA [Fam2.1 aminoacylation ribozyme variant]	5.45	6.61	16.6	5.05	3.2	3.36
AGUACCCUAGUCAUCGAGUGA [Fam2.1 aminoacylation ribozyme variant]	4.86	6.29	24.6	4.92	3.13	3.2
AGUACCCUGAUCAUCGAGUGA [Fam2.1 aminoacylation ribozyme variant]	6.82	8.64	26.6	6.72	3.5	3.22
AGUACCCUGGUCAACGAGUGA [Fam2.1 aminoacylation ribozyme variant]	5.55	5.71	21.6	4.71	2.63	2.91
AGUACCCUGGUCAUCCAGUGA [Fam2.1 aminoacylation ribozyme variant]	5.15	6.9	34.7	5.87	2.86	3.06
AGUACCCUGGUCCUCGAGUGA [Fam2.1 aminoacylation ribozyme variant]	4.14	4.66	18.1	5.58	2.81	2.7
AGUACCCUUGUCAUCGAGUGA [Fam2.1 aminoacylation ribozyme variant]	5.76	6.7	18.4	6.28	3.48	3.06
AGUCACCUAGGUCACCGGGUG [Fam2.2 aminoacylation ribozyme variant]	4.49	6.49	31.7	4.38	4.47	4.07
AGUCACCUAGGUCAUCCGGUG [Fam2.2 aminoacylation ribozyme variant]	6.2	7.84	56.9	6.49	5.32	5.6
AGUCACCUAGGUCAUCGCGUG [Fam2.2 aminoacylation ribozyme variant]	14.4	14.3	97	18.3	9.1	8.4
AGUCACCUAGGUCAUCGGAUG [Fam2.2 aminoacylation ribozyme variant]	1.21	0.786	1.24	1.18	1.04	1.2
AGUCACCUAGGUCAUCGGCUG [Fam2.2 aminoacylation ribozyme variant]	2.18	3	18.9	2.27	2.59	2.5
AGUCACCUAGGUCAUCGGGUA [Fam2.2 aminoacylation ribozyme variant]	11.6	9.54	60	12.7	6.5	6.85
AGUCACCUAGGUUAUCGGGUG [Fam2.2 aminoacylation ribozyme variant]	4.56	6.62	32.2	4.68	4.56	4.39
AGUCACCUUGGUCAUCGGGUG [Fam2.2 aminoacylation ribozyme variant]	5.4	5.71	49.8	6.96	4.85	4.89
AGUCACGUAGGUCAUCGGGUG [Fam2.2 aminoacylation ribozyme variant]	5.11	6.71	52.9	5.72	5.07	3.96
AGUGCCCUGGUCAUCGAGUGA [Fam2.1 aminoacylation ribozyme variant]	12.5	13.6	67.6	14.5	5.79	6.36
AUAACCAUGGUCAUCGAGUGA [Fam2.1 aminoacylation ribozyme variant]	7.91	8.43	23.8	7.68	3.7	3.91
AUAACCCUAGUCAUCGAGUGA [Fam2.1 aminoacylation ribozyme variant]	5.44	6.64	5.43	5.25	2.97	2.68
AUAACCCUGGACAUCGAGUGA [Fam2.1 aminoacylation ribozyme variant]	6.69	5.65	28.8	6.63	2.47	3.02
